This data set deals with SbMYB44 (Salicornia brachiata, UniProt X2J380 1-269). Briefly: EMSA; 15 mM HEPES, 35 mM KCl, 4 mM EDTA (pH 8.0), 1 mM DTT, 1 mM MgCl2, 6% glycerol, room temperature 20 min; 80 ng probe, 40 ug protein in Methods (ng in Results/Fig. 5); SYBR Green stain. The settings on record: protein: recombinant; tags: 6xHis (pET28a, EcoRI/XhoI); blunt.
Chain of SbMYB44 (X2J380 entry or part of it): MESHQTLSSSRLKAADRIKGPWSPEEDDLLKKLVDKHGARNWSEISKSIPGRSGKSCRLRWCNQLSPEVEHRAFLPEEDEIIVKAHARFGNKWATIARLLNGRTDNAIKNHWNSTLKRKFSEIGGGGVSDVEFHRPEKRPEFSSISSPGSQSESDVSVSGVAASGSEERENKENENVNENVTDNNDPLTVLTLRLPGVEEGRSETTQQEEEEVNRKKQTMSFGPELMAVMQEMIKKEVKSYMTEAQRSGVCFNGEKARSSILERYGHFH

B1: MBS-1 (dsDNA)
DNA 1: CGAGACACCCTAACTGACACACATTCT
DNA 2: AGAATGTGTGTCAGTTAGGGTGTCTCG
For B1, the binding result was “binds”.

B2: RD22 (dsDNA)
DNA 1: CTTCTAACCACTACGTGCCTTCTGCTCCTTCTGC
DNA 2: GCAGAAGGAGCAGAAGGCACGTAGTGGTTAGAAG
On to B2, for which the binding result was “binds”.

B3: RD29a DRE (dsDNA)
DNA 1: TAAAAGATATACTACCGACATGAGTTCCAAAAAGC
DNA 2: GCTTTTTGGAACTCATGTCGGTAGTATATCTTTTA
With B3, the binding result is recorded as “no binding”.

The record behind these values is PMC4497479, “Molecular characterization of an MYB transcription factor from a succulent halophyte involved in stress tolerance”.
